Experimental data as given in patent US20240270826A1 (NATIONAL RESEARCH COUNCIL OF CANADA, published 2024).

Key:
SARS-CoV spike (S) = SARS-CoV spike (S) (SARS-CoV, UniProt P59594 14-1195); assay: ELISA
[1] = target: T1, SARS-CoV-2 S2 (aa686-1208) (Wuhan) (SARS-CoV-2 Wuhan, UniProt P0DTC2 686-1208); assay: ELISA
T1 construct: NRC; FLAG, 6xHis tags

[2] = target: T2, SARS-CoV-2 S1-NTD (aa16-305) (SARS-CoV-2 Wuhan, UniProt P0DTC2 16-305); assay: ELISA
[3] = target: T3, SARS-CoV-2 S on CHO-S cells (SARS-CoV-2, UniProt P0DTC2 14-1273); assay: flow cytometry, CHO-S cells
T3 construct: whole, on cells

RBD (aa319-541) (Wuhan) [4] = target: T4, RBD (aa319-541) (Wuhan) (SARS-CoV-2 (Wuhan), UniProt P0DTC2 319-541); assay: SPR, RBD over captured VHH-Fc
RBD_SARS-CoV (aa306-527) = RBD_SARS-CoV (aa306-527) (SARS-CoV, UniProt P59594 306-527); assay: SPR, RBD over captured VHH-Fc
RBD (aa319-541) (Wuhan) [5] = target: T4, RBD (aa319-541) (Wuhan); assay: SPR, RBD over captured VHH-Fc (per Table 11 footnote)
[6] = target: T5, ACE2-Fc (human ACE2 aa18-740 fused to human IgG1 Fc) (human, UniProt Q9BYF1 18-740); assay: ELISA
T5 construct: range 18-740

[7] = target: Human SARS-CoV-2_Wuhan S (SmT1) (SARS-CoV-2 (Wuhan), UniProt P0DTC2 14-1208); assay: tandem SPR, immobilized S, orientation 1: VHH alone
[8] = target: T1, SARS-CoV-2 S2 (aa686-1208) (Wuhan); assay: SPR single-cycle kinetics, VHH over immobilized S2 [cont.]
[9] = target: T6, SARS-CoV-2 S1 (aa16-685) (Wuhan) (SARS-CoV-2 Wuhan, UniProt P0DTC2 16-685); assay: SPR single-cycle kinetics, VHH over immobilized S1 [cont.]
T6 construct: NRC; FLAG, 6xHis tags

[10] = target: T1, SARS-CoV-2 S2 (aa686-1208) (Wuhan); assay: SPR single-cycle kinetics, VHH over immobilized S2 [cont.]; remark: listed apart in the source
[11] = target: T7, SARS-CoV-2 spike trimer S (Wuhan, SmT1) (SARS-CoV-2 Wuhan); assay: SPR, antigen on chip
T7 construct: extracellular domain

[12] = target: T6, SARS-CoV-2 S1 (aa16-685) (Wuhan); assay: SPR, antigen on chip
[13] = target: T1, SARS-CoV-2 S2 (aa686-1208) (Wuhan); assay: SPR, antigen on chip
[14] = target: SARS-CoV-2 S1-RBD fused to human Fc (S1-RBD-Fc) (SARS-CoV-2 Wuhan; human); assay: SPR, antigen on chip
[15] = target: T7, SARS-CoV-2 spike trimer S (Wuhan, SmT1); assay: flow cytometry, inhibition of S binding to ACE2 on Vero E6 cells, monomeric VHH
[16] = target: SARS-CoV-2 RBD (aa319-541) (Wuhan), monomeric (SARS-CoV-2 Wuhan, UniProt P0DTC2 319-541); assay: SPR, monomeric RBD over captured VHH-Fc
[17] = target: T1, SARS-CoV-2 S2 (aa686-1208) (Wuhan); assay: SPR; 'nd' read as spanning the three S1 columns, the dashes as the S2 block
[18] = target: T2, SARS-CoV-2 S1-NTD (aa16-305); assay: ELISA, coated antigen
[19] = target: T7, SARS-CoV-2 spike trimer S (Wuhan, SmT1); assay: ELISA, coated antigen, apparent EC50
[20] = target: T6, SARS-CoV-2 S1 (aa16-685) (Wuhan); assay: ELISA, coated antigen, apparent EC50

T5 sequence (Q9BYF1 18-740 limits assumed): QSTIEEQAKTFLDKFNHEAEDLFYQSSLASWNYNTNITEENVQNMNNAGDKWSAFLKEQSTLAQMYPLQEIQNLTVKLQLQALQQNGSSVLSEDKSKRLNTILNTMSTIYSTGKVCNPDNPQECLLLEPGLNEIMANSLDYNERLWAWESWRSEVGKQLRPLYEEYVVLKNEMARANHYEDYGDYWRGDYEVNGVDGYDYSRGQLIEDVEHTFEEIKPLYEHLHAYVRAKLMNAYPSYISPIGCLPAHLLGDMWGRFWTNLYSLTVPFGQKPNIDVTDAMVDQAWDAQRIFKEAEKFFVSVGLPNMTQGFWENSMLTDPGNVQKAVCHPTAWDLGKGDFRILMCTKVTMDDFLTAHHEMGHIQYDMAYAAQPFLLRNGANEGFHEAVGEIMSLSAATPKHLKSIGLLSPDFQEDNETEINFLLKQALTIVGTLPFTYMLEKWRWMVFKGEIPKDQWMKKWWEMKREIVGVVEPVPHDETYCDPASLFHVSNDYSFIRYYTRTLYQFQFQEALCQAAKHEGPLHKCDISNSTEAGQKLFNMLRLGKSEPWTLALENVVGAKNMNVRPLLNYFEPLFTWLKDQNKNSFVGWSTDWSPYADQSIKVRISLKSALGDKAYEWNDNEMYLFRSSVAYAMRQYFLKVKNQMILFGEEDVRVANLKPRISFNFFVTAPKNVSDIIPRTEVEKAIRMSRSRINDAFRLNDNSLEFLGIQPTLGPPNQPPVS

B1: NRCoV2-MRed05 VHH-Fc (Fc fusion)
chain: EVQLVESGGGLVQPGGSLRLSCAASGFTLDYYAIGWFRQAPGKEREGVSCISSSDGSTLYADSVKGRFTISRDNAKNTVYLQMNSLKPEDTAVYYCATGPQAYYSGSYYFQCPQAGMDYWGKGTQVTVSS
binding result (SARS-CoV spike (S)): no binding (tested: 13 nM)
binding result [1]: no binding (tested: 13 nM)
binding result [2]: no binding (tested: 13 nM)
Bmax [3]: 17300
EC50 [3]: 0.5 nM
Kd (RBD (aa319-541) (Wuhan) [4]): 0.905 nM
koff (RBD (aa319-541) (Wuhan) [4]): 0.000509 s⁻¹
kon (RBD (aa319-541) (Wuhan) [4]): 562000 M⁻¹ s⁻¹
binding result (RBD_SARS-CoV (aa306-527)): no binding
Kd (RBD (aa319-541) (Wuhan) [5]): 0.91 nM

B2: Human CoV-HKU1 S (other)
chain: AVIGDFNCTNSFINDYNKTIPRISEDVVDVSLGLGTYYVLNRVYLNTTLLFTGYFPKSGANFRDLALKGSIYLSTLWYKPPFLSDFNNGIFSKVKNTKLYVNNTLYSEFSTIVIGSVFVNTSYTIVVQPHNGILEITACQYTMCEYPHTVCKSKGSIRNESWHIDSSEPLCLFKKNFTYNVSADWLYFHFYQERGVFYAYYADVGMPTTFLFSLYLGTILSHYYVMPLTCNAISSNTDNETLEYWVTPLSRRQYLLNFDEHGVITNAVDCSSSFLSEIQCKTQSFAPNTGVYDLSGFTVKPVATVYRRIPNLPDCDIDNWLNNVSVPSPLNWERRIFSNCNFNLSTLLRLVHVDSFSCNNLDKSKIFGSCFNSITVDKFAIPNRRRDDLQLGSSGFLQSSNYKIDISSSSCQLYYSLPLVNVTINNFNPSSWNRRYGFGSFNLSSYDVVYSDHCFSVNSDFCPCADPSVVNSCAKSKPPSAICPAGTKYRHCDLDTTLYVKNWCRCSCLPDPISTYSPNTCPQKKVVVGIGEHCPGLGINEEKCGTQLNHSSCFCSPDAFLGWSFDSCISNNRCNIFSNFIFNGINSGTTCSNDLLYSNTEISTGVCVNYDLYGITGQGIFKEVSAAYYNNWQNLLYDSNGNIIGFKDFLTNKTYTILPCYSGRVSAAFYQNSSSPALLYRNLKCSYVLNNISFISQPFYFDSYLGCVLNAVNLTSYSVSSCDLRMGSGFCIDYALPSSRRKRRGISSPYRFVTFEPFNVSFVNDSVETVGGLFEIQIPTNFTIAGHEEFIQTSSPKVTIDCSAFVCSNYAACHDLLSEYGTFCDNINSILNEVNDLLDITQLQVANALMQGVTLSSNLNTNLHSDVDNIDFKSLLGCLGSQCGSSSRSLLEDLLFNKVKLSDVGFVEAYNNCTGGSEIRDLLCVQSFNGIKVLPPILSETQISGYTTAATVAAMFPPWSAAAGVPFSLNVQYRINGLGVTMDVLNKNQKLIANAFNKALLSIQNGFTATNSALAKIQSVVNANAQALNSLLQQLFNKFGAISSSLQEILSRLDNLEAQVQIDRLINGRLTALNAYVSQQLSDITLIKAGASRAIEKVNECVKSQSPRINFCGNGNHILSLVQNAPYGLLFIHFSYKPTSFKTVLVSPGLCLSGDRGIAPKQGYFIKQNDSWMFTGSSYYYPEPISDKNVVFMNSCSVNFTKAPFIYLNNSIPNLSDFEAELSLWFKNHTSIAPNLTFNSHINATFLDLYYEMNVIQESIKSLNSSFINLKEIGTYEMYVKWP
notes: Sino Biological; 6xHis
binding result [6]: no binding (tested: 13 nM)

B3: NRCoV2-12 VHH-Fc (Fc fusion)
chain: EVQLQQSGGGLVQAGGSLRLSCAASGRTFRNYVMGWFRQAPQAPGKDHEFVAAISWGGTEIYYADSVKGRFTISRDNAKNTVYLQMNSLKPEDTAVYYCAADRGLSYYYTRTTEYNYWGQGTQVTVSS
binding result [1]: no binding (tested: 13 nM)
binding result [2]: no binding (tested: 13 nM)
Bmax [3]: 21800
EC50 [3]: 0.8 nM
Kd (RBD (aa319-541) (Wuhan) [4]): 0.0469 nM
koff (RBD (aa319-541) (Wuhan) [4]): 3.5e-05 s⁻¹
kon (RBD (aa319-541) (Wuhan) [4]): 747000 M⁻¹ s⁻¹
Kd (RBD_SARS-CoV (aa306-527)): 2.69 nM
koff (RBD_SARS-CoV (aa306-527)): 0.00101 s⁻¹
kon (RBD_SARS-CoV (aa306-527)): 376000 M⁻¹ s⁻¹
Kd (RBD (aa319-541) (Wuhan) [5]): 0.047 nM

B4: NRCoV2-02 VHH (VHH)
VHH: EVQLVESGGGLVQAGGSLRLSCAASGFTFSNYAMNWVRQAPGKGLEWVSGISGRGDDTRYADSVKGRFTISRDNAKNTLFLQMRSLRPEDTGVYRCTKGPDLYYFGSGYSDRGQGTQVTVSS
End 1st inj (RU) [7]: 33 RU
binding result [8]: no binding (tested: 10 nM)

B5: NRCoV2-SR03 VHH (VHH)
VHH: AVQLVDSGGGLVQAGGSLRLSCAASGSIFSNNHMGWYRQAPGKQRELVAAISSGGKTNYADFAKGRFTISRDNAKNMVYLQMNSLKPEDTAVYYCNRGGWEYRSSYYIMGPHWGQGTQVTVSS
End 1st inj (RU) [7]: 18.5 RU
binding result [8]: no binding (tested: 20 nM)

B6: NRCoV2-S2A4 VHH (VHH)
VHH: QVQLVQSGGGLVQAGGSLRLSCAVSGSPFRSNVMEWYRQAPGKQRELVASISTGGSRTYTDSVKGRFTISRDNAKNEAFLQMNSLKPEDTAVYYCHAAARDSHGIYLLDTWGQGTQVTVSS
End 1st inj (RU) [7]: 11.6 RU
binding result [9]: no binding (tested: 40 nM)

B7: NRCoV2-07 VHH (VHH)
VHH: QVQLVQSGGGLVQPGGSLRLSCAASGVTLDYYAIGWFRQAPGKEREAVSCISSNGRRNHYVASVRGRFTISRDNAKSTVYLQMNSLKPEDTAVYYCAAVQDVHGDNYYCTSPNEYNVWGQGTQVTVSS
End 1st inj (RU) [7]: 19.1 RU
binding result [10]: no binding (tested: 20 nM)

B8: NRCoV2-17 VHH (VHH)
VHH: EVQLQQSGGGLVQTGGSLRLSCAAAGSPFSQLAMSWYRQISGKERAWVASISPTGNRSYSKIAKGRFTISRDNAKNTVTLQMTSLKPEDTAAYICQAANVNGGDYWGQGTQVTVSS
Kd [11]: 0.149 nM
koff [11]: 9.79e-05 s⁻¹
kon [11]: 659000 M⁻¹ s⁻¹
Kd [12]: 0.153 nM
koff [12]: 9.66e-05 s⁻¹
kon [12]: 629000 M⁻¹ s⁻¹
binding result [13]: no binding
Kd [14]: 0.395 nM
koff [14]: 0.000224 s⁻¹
kon [14]: 567000 M⁻¹ s⁻¹
IC50 [15]: 9.4 nM

B9: NRCoV2-12 VHH-Fc (Fc fusion)
chain: B3 chain
notes: bivalent
Kd [16]: 0.0486 nM
koff [16]: 3.69e-05 s⁻¹
kon [16]: 760000 M⁻¹ s⁻¹
binding result [17]: no binding

B10: NRCoV2-11 VHH (VHH)
VHH: EVQLVSSGGGLVQPGGSLRLSCAASGSSLDSYSVSWFRQAPGKEREWISFISRYYSSTYYTDSVKGRFTTSRDGDQKTVHLQMNSLKPEDTAVYYCAARSRDFSSPFSATDTYTSWGQGTQVTVSS
Kd [11]: 0.0391 nM
koff [11]: 4.73e-05 s⁻¹
kon [11]: 1.21e+06 M⁻¹ s⁻¹
Kd [12]: 0.167 nM
koff [12]: 0.00018 s⁻¹
kon [12]: 1.08e+06 M⁻¹ s⁻¹
Kd [14]: 0.253 nM
koff [14]: 0.000226 s⁻¹
kon [14]: 892000 M⁻¹ s⁻¹
IC50 [15]: 16.8 nM

B11: NRCoV2-02 VHH-Fc (Fc fusion)
chain: B4 VHH
notes: bivalent
binding result [18]: no binding
EC50 [19]: 0.1 nM
EC50 [20]: 0.11 nM
